In US20090098074A1:

Tests used:
[1] = molecular target: human hair (hair keratin) (human); test: quantitative hair-binding test; loss of A405 after 10% SDS relative to untreated hair
[2] = molecular target: human skin (skin keratin) (human); test: quantitative skin-binding test; loss of A405 after 10% SDS relative to untreated skin
[3] = molecular target: human skin (skin keratin) (human); test: quantitative skin-binding test, after washing with 10% strength SDS; value standardized to the surface
[4] = molecular target: human hair (hair keratin) (human); test: quantitative hair-binding test, after washing with 10% strength SDS; value standardized to the surface
[5] = molecular target: human hair (hair keratin) (human); test: quantitative hair-binding test on 5 mg human hair, anti-polyHistidine peroxidase/TMB; value standardized to the surface
[6] = molecular target: human skin (skin keratin) (human); test: quantitative skin-binding test on human keratinocytes in microtiter plates, anti-His antibody/TMB; value standardized to the surface
[7] = molecular target: human hair (hair keratin) (human); test: quantitative hair-binding test; DENATURED KBD-B on 5 mg human hair, anti-polyHistidine peroxidase conjugate, TMB
[8] = molecular target: human hair (hair keratin) (human); test: quantitative hair-binding test; renatured KBD-B on 5 mg human hair, anti-polyHistidine peroxidase conjugate, TMB
[9] = molecular target: human hair (hair keratin) (human); test: quantitative hair-binding test; His-tagged protein on 5 mg human hair, anti-polyHistidine peroxidase conjugate, TMB

B1: KBD-D (SEQ ID No.: 168), keratin-binding domain D, H. sapiens plakophilin 1a with N-terminal histidine anchor (protein)
chain: MRGSHHHHHHGSACELGTMNHSPLKTALAYECFQDQDNSTLALPSDQKMKTGTSGRQRVQEQVMMTVKRQKSKSSQSSTLSHSNRGSMYDGLADNYNYGTTSRSSYYSKFQAGNGSWGYPIYNGTLKREPDNRRFSSYSQMENWSRHYPRGSCNTTGAGSDICFMQKIKASRSEPDLYCDPRGTLRKGTLGSKGQKTTQNRYSFYSTCSGQKAIKKCPVRPPSCASKQDPVYIPPISCNKDLSFGHSRASSKICSEDIECSGLTIPKAVQYLSSQDEKYQAIGAYYIQHTCFQDESAKQQVYQLGGICKLVDLLRSPNQNVQQAAAGALRNLVFRSTTNKLETRRQNGIREAVSLLRRTGNAEIQKQLTGLLWNLSSTDELKEELIADALPVLADRVIIPFSGWCDGNSNMSREVVDPEVFFNATGCLRNLSSADAGRQTMRNYSGLIDSLMAYVQNCVAASRCDDKSVENCMCVLHNLSYRLDAEVPTRYRQLEYNARNAYTEKSSTGCFSNKSDKMMNNNYDCPLPEEETNPKGSGWLYHSDAIRTYLNLMGKSKKDATLEACAGALQNLTASKGLMSSGMSQLIGLKEKGLPQIARLLQSGNSDVVRSGASLLSNMSRHPLLHRVMGNQVFPEVTRLLTSHTGNTSNSEDILSSACYTVRNLMASQPQLAKQYFSSSMLNNIINLCRSSASPKAAEAARLLLSDMWSSKELQGVLRQQGFDRNMLGTLAGANSLRNFTSRF
Relative absorption loss after 10% strength SDS treatment in % [1]: 30%
Relative absorption loss after 10% strength SDS treatment in % [2]: 15%
Absorption at 405 nm [3]: 3.15
Absorption at 405 nm [4]: 0.62
Absorption at 405 nm [5]: 0.88
Absorption at 405 nm [6]: 3.69

B2: KBD-B (SEQ ID No.: 166), keratin-binding domain B of human desmoplakin expressed from pQE30-KBD-B in E. coli (protein)
chain: MRGSHHHHHHGSACELEPHTGLLLLSVQKRSMSFQGIRQPVTVTELVDSGILRPSTVNELESGQISYDEVGERIKDFLQGSSCIAGIYNETTKQKLGIYEAMKIGLVRPGTALELLEAQAATGFIVDPVSNLRLPVEEAYKRGLVGIEFKEKLLSAERAVTGYNDPETGNIISLFQAMNKELIEKGHGIRLLEAQIATGGIIDPKESHRLPVDIAYKRGYFNEELSEILSDPSDDTKGFFDPNTEENLTYLQLKERCIKDEETGLCLLPLKEKKKQVQTSQKNTLRKRRVVIVDPETNKEMSVQEGVDLQPSLIS
Relative absorption loss after 10% strength SDS treatment in % [1]: 86%
Relative absorption loss after 10% strength SDS treatment in % [2]: 80%
Absorption at 405 nm [3]: 0.185
Absorption at 405 nm [7]: 0.254
Absorption at 405 nm [8]: 1.59
Absorption at 405 nm [6]: 0.93

B3: comparison Protein YaaD from B. subtilis (with His tag) (protein, UniProt P37527 1-294, looked up, not shown: small tags and cut ends)
chain: MAQTGTERVKRGMAEMQKGGVIMDVINAEQAKIAEEAGAVAVMALERVPADIRAAGGVARMADPTIVEEVMNAVSIPVMAKARIGHIVEARVLEAMGVDYIDESEVLTPADEEFHLNKNEYTVPFVCGCRDLGEATRRIAEGASMLRTKGEPGTGNIVEAVRHMRKVNAQVRKVVAMSEDELMTEAKNLGAPYELLLQIKKDGKLPVVNFAAGGVATPADAALMMQLGADGVFVGSGIFKSDNPAKFAKAIVEATTHFTDYKLIAELSKELGTAMKGIEISNLLPEQRMQERGW
Absorption at 405 nm [9]: 0.088
